# Values quoted from earlier work, collected in article PMC6916721.
# Columns and labels:
# His95 = His95 (UniProt position 121, YHCTPHPFMRG); conditions: reduced (Cu+) amicyanin, free (not in complex with MADH)
# [1] = molecular target: Amicyanin, reduced (Cu+) form (UniProt P22364); conditions: pH
# Amicyanin, reduced (Cu+) form, sequence (P22364 whole entry): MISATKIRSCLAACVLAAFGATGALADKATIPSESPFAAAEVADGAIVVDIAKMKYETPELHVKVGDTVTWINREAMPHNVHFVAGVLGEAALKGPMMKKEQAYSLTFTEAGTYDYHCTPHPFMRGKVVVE
"pKa, His95 of amicyanin (copper ligand, reduced Cu+ state) [1] [pH units]",Substance,pKa (His95)
–,Amicyanin (Paracoccus denitrificans),7.7
7.7,Methylamine dehydrogenase (MADH),–
